In PMC7957560:

System: viral hemagglutinin on virions (vHA) (Influenza A virus A/chicken/Kurgan/3654at/2005 (H5N1))
Assay: BLI
Conditions: BLI at 30 C in sodium-potassium phosphate buffer pH 7.4 ([…]

| Sequence | Kd [nM] |
| --- | --- |
| GGGAGGGAGGGAGGG [G7nt-A_A_A] | 0.2 |
| GGGAGGGAGGGCGGG [G7nt-A_A_C] | 0.3 |
| GGGAGGGTGGGTGGG [G7nt-A_T_T] | 0.2 |
| GGGTGGGAGGGCGGG [G7nt-T_A_C] | 0.3 |
| GGGTGGGAGGGTGGG [G7nt-T_A_T] | 0.07 |
| GGGTGGGTGGGAGGG [G7nt-T_T_A] | 0.7 |
| GGGTGGGTGGGTGGG [G7nt-T_T_T] | 0.6 |
| GGGTTATTTTGGGAGGGCGGG [G7nt] | 0.13 |
| GGGTTATTTTGGGAGGGCGGGGGTT [G7n5t] | 0.04 |
| TTGGGGTTAGGGAGGGCGGGGGTT [G7-TTA_A_C] | 0.04 |
| TTGGGGTTATTAAGGGAGGGCGGGGGTT [G7-TTATTAA_A_C] | 0.09 |
| TTGGGGTTATTTTGGGAGGGCGGG [G7n3t] | 0.16 |
| TTGGGGTTATTTTGGGAGGGCGGGGGTT [RHA0385] | 0.05 |
